Assay results: patent publication US9321838B2, “Therapy targeting cathepsin S” (Fusion Antibodies Limited, priority 2006, dated 2016)

What was measured:
[1] = biological target: T1, CatS on the cell surface of HCT116 cells (Homo sapiens, UniProt P25774); experiment: flow cytometry staining of HCT116 cells with CatS monoclonal antibody; format: binding; settings: HCT116 cells stained for CatS
T1 construct: CatS expression is localised to the cell surface on HCT116 cells; endogenous in cells; host or cells: HCT116
Procedure: Cells were collected from tissue culture plates using a scraper and washed ×3 in PBS (0.01% tween) (5 minute centrifugation at 1500 rpm). Approximately 5×10^5 cells were placed in appropriately labelled tubes. Cells were incubated with 50 μl anti-CatS or Isotype control (Sigma, UK) for 1 hour at room temperature. Following incubation each tube was washed ×3 in PBS (0.01% tween) (5 minute centrifugation at 1500 rpm). Samples were then incubated with a 1 in 15 dilution of FITC-conjugated goat anti-mouse secondary antibody (Sigma, UK) (samples kept in dark at room temperature). Following incubation each tube was washed ×3 in PBS (0.01% tween) (5 minute centrifugation at 1500 rpm). Samples were resuspended in 0.5 ml of PBS prior to immediate analysis using the Cyan flow cytometer (Dako, UK).
HCT116 cells were stained for CatS expression using a CatS monoclonal antibody as before. Cells were grown on glass coverslips, fixed using ice-cold acetone and incubated with CatS antibody at a 1:100 dilution. Coverslips were rinsed with PBS and incubated with antimouse AlexaFluor® 488 labelled secondary antibody. Coverslips were washed again using PBS, mounted using PermaFluor mounting media and visualised by confocal microscopy.
The presence of Cathepsin S on the cell surface of tumour cells was further confirmed using confocal microscopy. […]

CatS [2] = biological target: T2, CatS (Homo sapiens, UniProt P25774); experiment: fluorimetric assay of CatS proteolytic activity; format: biochemical
Description: The ability of an agent, for example a small molecule or antibody, to inhibit the proteolytic activity of Cathepsin S may be tested using any suitable method. For example a fluorimetric assay may be used. In such an assay, any suitable fluorigenic substrate may be used, for example Cbz-Phe-Arg-AMC. An agent is considered to inhibit the proteolytic activity of Cathepsin S if it has the ability to inhibit its activity by a statistically significant amount. For example, in one embodiment, an agent for use as the Cathepsin S inhibitor is able to inhibit the […] activity by at least 10%, for example at least 25%, 50%, 70%, 80% or 90%, when compared to an appropriate control antibody.
As shown in co-pending PCT application WO2006/109045, the contents of which are incorporated herein by reference, which claims priority from GB0507219.4 and GB0507272.3, this antibody has potent inhibitory activity.
(§1) The F47 Cathepsin S 1C11 1E11 1E4 cell line which is the hybridoma cell line that produces the IE4 antibody has been deposited with the European Collection of Cell Cultures (“ECACC”) under Accession No. 15072905.

[3] = system: human microvascular endothelial cells (HMECs); experiment: Matrigel capillary-like tube formation assay; format: cell-based
Procedure: The effect of the CatS mAb on endothelial cell tube formation was assessed as follows. Two hundred microliter of Matrigel (10 mg/ml) was applied to pre-cooled 48-well plates, incubated for 10 min at 4° C. and then allowed to polymerize for 1 h at 37° C. Cells were suspended in endothelial growth cell medium MV (Promocell), containing 200 nM of the appropriate antibody. Five hundred microliter (1×10^5 cells) were added to each well. As controls, cells were incubated with vehicle-only control medium containing the appropriate volumes of PBS. After 24 h incubation at 37° C. and 5% CO2, cells were viewed using a Nikon Eclipse TE300 microscope.
Using the Matrigel morphogenesis assay described by Grant et al (Cell 1989 Sep. 8; 58 (5): 933-43), capillary-tubule formation assays were performed with human microvascular endothelial cells (HMECs) cultured on Matrigel enabling the endothelial cells form tube-like structures, with invasive sprouts extending from individual cells to form contacts with nearby endothelial cells. FIG. 15a illustrates the results when the HMEC cells were cultured in the presence of two CatS antibodies (1E11 and 1E4) or isotype control.

other cathepsins = experiment: binding specificity / cross-reactivity with other cathepsins; settings: in particular those with the greatest homology to CatS
Description: as §1

[4] = system: HCT116+/+ human colorectal adenocarcinoma xenograft; experiment: HCT116+/+ xenograft model, immunohistochemistry of tumour sections; format: in vivo, SCID mice; settings: CatS 1E11+5Fu (IC50) vs Mouse IgG1+5-Fu control
Procedure: Briefly, sections were deparaffinised by passing from xylene to alcohol to running water. Endogenous peroxidase activity was blocked by incubation in 3% H2O2 in methanol for 10 min. Sections were then boiled in citrate buffer, pH6.0, for 22 min. Incubation in 5% normal horse serum blocking solution was carried out for 20 min at room temp. Sections were incubated with primary antibody at 4° C. overnight. Appropriate isotype controls were used at the same dilutions as primary antibodies. […]

[5] = examination of major mouse organs after treatment in xenograft model; format: in vivo, SCID mice
Procedure: 6-8 week old female SCID mice were implanted with 2×10^6 HCT116+/+ human colorectal adenocarcinoma cells into each flank. […] They were mixed with equal volumes of matrigel to give a final concentration of 5×10^6 cells/ml. Mice were randomly separated into treatment groups on day 5 after implantation and treated with various regimes of CatS Mab or Isotype control Mab (10 mg/kg) with/without 5Fu (15 mg/kg daily or 70 mg/kg twice weekly). All drugs were administered through a bolus injection. Animals were sacrificed at various time points and tumours were removed for analysis.
Paraffin embedding of formalin-fixed xenograft/organ tissue samples, section cutting and H&E (haematoxylin and eosin) staining of tissue sections were performed as previously described. Immunostaining was performed using the avidin-horseradish peroxidase method (Vectorlabs ABC Kit).
All major mouse organs were examined for architectural changes following treatment.

rat aortic ring segments = experiment: ex vivo rat aortic arch (ring) assay in Matrigel; format: cell-based
Procedure: Male Wistar rats are euthanised and the thoracic aorta is aseptically removed and sectioned into […] thick rings. The rings are washed ten times in sterile medium to remove any bacteria and embedded into Matrigel on 24 well plates. The wells are supplemented with 2 ml of medium and increasing concentrations of antibodies. The plate is incubated for 8 days and post incubation the Matrigel and rings are fixed in 4% PBS buffered paraformaldehyde and stored in PBS. The extent of vessel development is blindly assessed microscopically by an independent investigator and quantified using a calibrated eyepiece graticule (1 mm/100 μm graduation) at 20× magnification (Olympus BX 50). The extent of vessel length, maximum vessel length and number of vessels in each field of view is measured and compared to time matched sham controls and the % inhibition calculated.
To evaluate further the role of CatS in angiogenesis, an ex vivo rat aortic arch assay was performed. Sections of the aorta (1 mm) were cultured within a thin layer of Matrigel in the presence of the inhibitory antibody and appropriate controls. The formation of tube-like vessels from the aorta were monitored and quantified after 7 days by measuring the reduction in the number of vessels, mean vessel length and maximum vessel length compared to controls.

CatS [6] = biological target: T2, CatS; settings: fluorigenic substrate; shown in co-pending WO2006/109045; cited from earlier work
[7] = system: PC3 prostate carcinoma cell line; settings: shown in co-pending WO2006/109045; cited from earlier work
[8] = system: U251mg astrocytoma cell line; settings: shown in co-pending WO2006/109045; cited from earlier work
[9] = system: HCT116 colorectal carcinoma cell line; settings: shown in co-pending WO2006/109045; cited from earlier work
[10] = system: MDMB231 breast cancer cell line; settings: shown in co-pending WO2006/109045; cited from earlier work
[11] = system: MCF 7 breast cancer cell line; settings: shown in co-pending WO2006/109045; cited from earlier work
[12] = repeat experiment, up to 10 μg/ml

T2 sequence (P25774 115-331): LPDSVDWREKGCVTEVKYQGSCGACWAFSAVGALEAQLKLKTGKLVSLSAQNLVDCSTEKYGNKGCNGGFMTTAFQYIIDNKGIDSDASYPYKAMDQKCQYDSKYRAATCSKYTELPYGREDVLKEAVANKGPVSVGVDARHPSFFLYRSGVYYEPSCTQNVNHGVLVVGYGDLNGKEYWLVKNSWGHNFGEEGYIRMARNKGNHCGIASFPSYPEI
T1 sequence (P25774 115-331): as above

B1: 1E11: Cathepsin S inhibitory monoclonal antibody; VH Seq ID No: 7, VL Seq ID No: 8, CDRs Seq ID Nos: 1-6 (antibody, listed as Mus musculus, V domains shown)
VH: VQLQESGGVLVKPGGSLKLSCAASGFAFSSYDMSWVRQTPEKRLEWVAYITTGGVNTYYPDTVKGRFTISRDNAKNTLYLQMSSLKSEDTAMYYCARHSYFDYWGQGTTVTVSS
VL: DVLMTQTPLSLPVSLGDQASISCRSSQSLVHSNGNTYLHWYLQKPGQSPKLLIYKVSNRFSGVPDRFSGSGSGTDFTLKISRVEAEDLGVYFCSQTTHVPPTFGSGTKLEIKR
modifications: VH domain amino acid sequence; VL domain amino acid sequence
increase in fluorescent intensity in comparison to the isotype control [1]: 38% | ability to inhibit the catalytic activity of CatS (CatS [2]): can specifically inhibit the activity of CatS | tube formation of HMEC cells on Matrigel ([3]; antibody 200 nM, 24 h, vs vehicle-only and isotype control): almost completely abolished | capillary tubule formation in Matrigel assay ([3]; summary statement, no concentration given): inhibit capillary tubule formation | cross-reactivity with other cathepsins (other cathepsins): no cross-reactivity with other cathepsins | caspase 3 activity in tumour tissue (anti-cleaved caspase-3 staining) [4]: increase in caspase 3 activity | architectural / pathological change of major mouse organs ([5]; nine-day drug regime CatS 1E11+5Fu (IC50)): No signs of pathological change | adverse toxic effect ([5]; repeated treatment with 10 mg/kg in combination with chemotherapy): no adverse toxic effect | reduction in maximum vessel length (rat aortic ring segments; [12]): 60% | reduction in mean vessel length (rat aortic ring segments; [12]): 60% | reduction in total vessel number (rat aortic ring segments; [12]): 70% | reduction in maximum vessel length (rat aortic ring segments; up to 600 nM): greater than 80% | reduction in mean vessel length (rat aortic ring segments; up to 600 nM): greater than 80% | reduction in total vessel number (rat aortic ring segments; up to 600 nM): greater than 80% | inhibition of proteolytic activity of CatS (CatS [6]): inhibits the proteolytic activity of CatS | inhibition of tumour cell invasion [7]: potently inhibit tumour cell invasion | inhibition of tumour cell invasion [8]: potently inhibit tumour cell invasion | inhibition of tumour cell invasion [9]: potently inhibit tumour cell invasion | inhibition of tumour cell invasion [10]: potently inhibit tumour cell invasion | inhibition of tumour cell invasion [11]: potently inhibit tumour cell invasion
